# Measurements as given in the supplement of paper PMC10567573.
# ± gives the standard deviation.
# Assay: protein stability index of a GFP-peptide fusion (GPS, HEK-293T) (PSI 1-6); higher = more stable
# [1] = treatment: DMSO, c terminus: a fixed tail appended
# [2] = treatment: MLN4924 1 uM, 8 h, c terminus: a fixed tail appended
# 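Note: 24-mer peptide tiles fused after GFP, lentivirally expressed, FACS-sorted into six equal bins by GFP/DsRed ratio, decoded by Illumina sequencing, PSI is the read-weighted mean bin number.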
Sequence,protein stability index [1],protein stability index [2],"protein stability index (treatment: DMSO, c terminus: native)","protein stability index (treatment: MLN4924 1 uM, 8 h, c terminus: native)"
KSLSIQYLELDRLVWRNSIRSSFI [FBXO39],2.51 ± 0.64,2.28 ± 0.17,–,–
KTESSGIETEPTVHHLPLSTEKVV [EPB41L3],5.21 ± 0.14,5 ± 0.25,–,–
KTMQSEETRVWHRRDGKWQNVHFH [CAMK2D],2.85 ± 0.15,3.14 ± 0.16,–,–
KTQSELASESEHIPKPQSTGWFGG [MIA2],3.97 ± 0.12,4.43 ± 0.096,–,–
KTSLAPYVKVFEHFLENLDKSRKG [PRIM1],2.54 ± 0.39,3.12 ± 0.46,–,–
KVMIHPDPERRPSAMALVKHSVLL [WEE1],2.22 ± 0.14,2.34 ± 0.57,–,–
KVQNECPGITRVYSIGRSVEGRHL [CPN1],3.08 ± 0.22,3.29 ± 0.5,–,–
KVSGNRCASPVTGPGSKRDAHFCA [ESR2],2.76 ± 0.44,2.79 ± 0.16,–,–
KYRRHFLRFCHNNKKAKRYLLHGL [EIF5],2.21 ± 0.2,2.27 ± 0.19,–,–
LAFKNDIQFWNSRQSLEGLSVRSV [CLPTM1],2.45 ± 0.18,2.5 ± 0.14,–,–
LAIKAITSSAKVDMTFEEEAQLLQ [FKBP8],2.95 ± 0.19,3.29 ± 0.34,–,–
LAMWTTALLHQAETLQPSVWFGGR [TMEM175],3 ± 0.56,2.82 ± 0.86,–,–
LCGPHAKAPYLCEATHEPAAARIR,3.75 ± 0.2,3.61 ± 0.24,–,–
LDNTKKKMEIYQKENKDVIQKNKL [MNAT1],4.44 ± 0.2,4.34 ± 0.18,–,–
LDPVAETAIRQLTEPSGRVAKKTP [C2CD2L],5.66 ± 0.17,5.18 ± 0.47,–,–
LEGLNLSILKAMGKTKKDYQEASN [NECAB1],3.78 ± 0.14,3.91 ± 0.22,–,–
LEKWMQKNVEENLYSSSLGGGVAT [GLT8D2],3.44 ± 0.2,3.69 ± 0.26,–,–
LELLEEVLALGLRTDVGITHQHWQ [RSAD1],2.3 ± 0.72,2.13 ± 0.23,–,–
LEQEEERLSKEWEDSKRWSKMDQL [CHGA],4.81 ± 0.24,4.73 ± 0.17,–,–
LETNQQHFHALCHSLLVSTHVPR [M1AP],–,–,2.48 ± 0.43,3.13 ± 0.9
LEVAMEEEGLADEEKKLRRSQHAR [STK38L],5.43 ± 0.3,5.27 ± 0.35,–,–
LEVPAGSRLNLTGLGYFSCHSHTV [CCDC3],2.57 ± 0.33,2.2 ± 0.25,–,–

Sequence,protein stability index [1],protein stability index [2],"protein stability index (treatment: DMSO, c terminus: native)","protein stability index (treatment: MLN4924 1 uM, 8 h, c terminus: native)"
LEVSQLEGSLQQPKAQSAMSPYLV [SMG5],3.37 ± 0.21,3.46 ± 0.21,–,–
LFGGFTTDKQPLSDAWTYCISKNE [KLHDC2],2.63 ± 0.47,2.75 ± 0.28,–,–
LGDRDRSRAALVCRKWNQMMYSAE [FBXO39],2.72 ± 0.21,2.79 ± 0.17,–,–
LGHMFMYFLRGSLPWQGLKADTLK [CSNK1G3],2.06 ± 0.26,2.57 ± 0.98,–,–
LGKGAFSVVRRCVKVLAGQEYAAK [CAMK2A],2.61 ± 0.4,2.38 ± 0.61,–,–
LGKLEATIKSLSAELLKANEIIKK [SASS6],2.44 ± 0.34,2.68 ± 0.16,–,–
LGKPDQKDLNENLAATQGLAHMIA [DLC1],3.79 ± 0.12,3.84 ± 0.23,–,–
LHPRPDWEHSAPQRLPRSAPPGSL [PCDHGC5],4.78 ± 0.19,4.75 ± 0.17,–,–
LHSEFDEQHGKKVPTVSRPYSFIE [SEC22B],4.04 ± 0.13,4.14 ± 0.24,–,–
LHVSLGQKLVAAYVLGLLTMVFLR [MOSPD3],3.17 ± 0.42,2.89 ± 0.28,–,–
LIFFLFIGVILFSSAVYFAEADEP [KCNA4],2.19 ± 0.086,2.38 ± 0.29,–,–
LIVPFGLLYSEVTASSLVKINLQG [ADD1],3.03 ± 0.47,2.88 ± 0.36,–,–
LKDEEAKVLQLTVRCEALTGELET [CCDC89],3.86 ± 0.15,3.71 ± 0.25,–,–
LKKEHPGARDGIRYLEAEFKKGNR [SMG5],4.35 ± 0.6,4.29 ± 0.24,–,–
LKNIELFDKLALRFHGRLLFLKDV [KCTD13],2.66 ± 0.77,2.11 ± 0.15,–,–
LKPAMTQAQDEVEQERRLSEARLS [FCHSD1],5.25 ± 0.18,5.19 ± 0.25,–,–
LKRKNKQAFLDELESSDLPVALLL [MNAT1],2.2 ± 0.42,2 ± 0.3,–,–
LKVGGILVMPIEDQLTQIMRTGQN [PCMTD1],2.66 ± 0.12,2.24 ± 0.22,–,–
LLARGTMQPFNYVTLQCLAARALD [FEM1A],2.44 ± 0.16,2.22 ± 0.29,–,–
LLDATVAGGQTRLQASDRYRDLAG [FCHSD1],3.99 ± 0.14,3.86 ± 0.12,–,–
LLEESDGEGEPGQGEGPEAGDAEV [NOP53],5.62 ± 0.22,5.61 ± 0.14,–,–
LLETANQTLQAMDSEDFPQAAKQI [FSD1],4.92 ± 0.26,4.79 ± 0.17,–,–
